These results are taken from PMC3459974.

For orientation: stoichiometry N means the number of molecules, sites or subunits per partner or assembly.

This test has as its target thioredoxin fused-human artemin protein (Trx-ARTN) (human) (UniProt Q5T4W7). The experiment in a line: SEC; Superdex-200 10/300 column; dimeric Trx-ARTN fractions eluted from the CM-sepharose column, from both refolding methods; calibration with protein standards.

Substance “thioredoxin fused-human artemin protein (Trx-ARTN) (from UniProt Q5T4W7 40-220) (natural protein)” registered a stoichiometry N of 2.
